PMC7771633 (Cell, 2020)

B1: HENV-26, human monoclonal antibody, IgG (antibody, V domains shown)
VH: EVQLLESGGGLIQPGGSLRLSCAASGFTFSRFTMSWVRQPPGKGPEWVSGISGSGGHTYYADSVKGRFTISRDNSKNTLYLQMNSLKAEDTAVYYCAKDGFVGQQLMRRGPWWFDPWGQGTLVTVSS
VL: SYVLTQPPSVSVAPGQTARISCGGNNIGNKGVHWYQQKPGQAPVVVVYDDSDRPSGIPERFSGSNSGNTATLTISRVEAGDEADYYCQVWDSSSDHVVFGGGTKLTVL
B2: HENV-32, human monoclonal antibody, IgG (antibody, V domains shown)
VH: QVQLVQSGAEVKKPGSSVKVSCKVSGGIFNRETINWVRQAPGQGLEWMGRITPIVDVPNYPRKFRGRVTITADKSTSTVYMELSGLRFEDTAIYFCARFRGHNYFDPWGQGTLVTVSS
VL: SYVLTQPPSVSVAPGQTARITCGGNNIGGKSVHWYQQKPGQAPVLVVYDDRDRPSGIPERFSGSNSGDTASLTISRVDAGDEADYFCQVWDNASDEAVFGGGTKLTVL
B3: HENV-32 Fab (Fab, V domains shown)
VH: B2 VH
VL: B2 VL

Assays:
[1] = molecular target: T1, HeV-RBP head domain (Hendra virus receptor binding protein, residues 185 – 604) (Hendra virus, UniProt O89343); experiment: ELISA
[2] = molecular target: full-length NiVB RBP expressed on the surface of mammalian cells (Nipah virus, strain Bangladesh, UniProt Q4VCP5, strain); experiment: flow cytometry on cells
[3] = molecular target: full-length HeV-RBP expressed on the surface of mammalian cells (Hendra virus, UniProt O89343); experiment: cell-based or functional assay
[4] = molecular target: full-length NiVM RBP expressed on the surface of mammalian cells (Nipah virus, strain Malaysia, UniProt Q9IH62); experiment: cell-based or functional assay
[5] = molecular target: T1, HeV-RBP head domain (Hendra virus …); experiment: BLI

T1 sequence (O89343 185-604): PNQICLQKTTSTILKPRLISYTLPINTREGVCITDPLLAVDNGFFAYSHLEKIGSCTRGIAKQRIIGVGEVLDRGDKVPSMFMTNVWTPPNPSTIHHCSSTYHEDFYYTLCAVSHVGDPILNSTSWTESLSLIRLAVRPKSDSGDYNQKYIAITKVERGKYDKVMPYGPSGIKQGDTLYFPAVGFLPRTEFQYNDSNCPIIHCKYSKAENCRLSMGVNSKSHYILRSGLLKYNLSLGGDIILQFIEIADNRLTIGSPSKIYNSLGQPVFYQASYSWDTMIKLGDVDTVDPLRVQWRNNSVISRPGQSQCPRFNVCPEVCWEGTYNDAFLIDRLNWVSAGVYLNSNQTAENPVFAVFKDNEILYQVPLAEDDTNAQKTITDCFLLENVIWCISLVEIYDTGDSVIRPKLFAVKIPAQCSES
Sequence of full-length HeV-RBP expressed on the surface of mammalian cells (O89343 whole entry): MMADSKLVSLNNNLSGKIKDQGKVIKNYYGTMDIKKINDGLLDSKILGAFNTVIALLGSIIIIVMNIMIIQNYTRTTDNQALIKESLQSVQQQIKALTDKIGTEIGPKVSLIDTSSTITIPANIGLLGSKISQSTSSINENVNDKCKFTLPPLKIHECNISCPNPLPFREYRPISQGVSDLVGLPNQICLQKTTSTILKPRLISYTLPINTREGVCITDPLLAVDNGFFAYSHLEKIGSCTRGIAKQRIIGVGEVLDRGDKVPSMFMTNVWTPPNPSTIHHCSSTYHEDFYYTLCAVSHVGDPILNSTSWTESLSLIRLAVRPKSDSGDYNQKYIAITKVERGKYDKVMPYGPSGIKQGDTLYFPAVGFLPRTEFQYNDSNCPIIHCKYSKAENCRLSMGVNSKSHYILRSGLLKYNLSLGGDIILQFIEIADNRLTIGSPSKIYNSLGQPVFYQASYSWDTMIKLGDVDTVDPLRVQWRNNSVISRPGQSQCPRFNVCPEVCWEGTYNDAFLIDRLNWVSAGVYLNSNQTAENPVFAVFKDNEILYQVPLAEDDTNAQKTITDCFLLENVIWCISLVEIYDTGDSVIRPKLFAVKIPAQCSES
Sequence of full-length NiVM RBP expressed on the surface of mammalian cells (Q9IH62 whole entry, the tested form may be a part): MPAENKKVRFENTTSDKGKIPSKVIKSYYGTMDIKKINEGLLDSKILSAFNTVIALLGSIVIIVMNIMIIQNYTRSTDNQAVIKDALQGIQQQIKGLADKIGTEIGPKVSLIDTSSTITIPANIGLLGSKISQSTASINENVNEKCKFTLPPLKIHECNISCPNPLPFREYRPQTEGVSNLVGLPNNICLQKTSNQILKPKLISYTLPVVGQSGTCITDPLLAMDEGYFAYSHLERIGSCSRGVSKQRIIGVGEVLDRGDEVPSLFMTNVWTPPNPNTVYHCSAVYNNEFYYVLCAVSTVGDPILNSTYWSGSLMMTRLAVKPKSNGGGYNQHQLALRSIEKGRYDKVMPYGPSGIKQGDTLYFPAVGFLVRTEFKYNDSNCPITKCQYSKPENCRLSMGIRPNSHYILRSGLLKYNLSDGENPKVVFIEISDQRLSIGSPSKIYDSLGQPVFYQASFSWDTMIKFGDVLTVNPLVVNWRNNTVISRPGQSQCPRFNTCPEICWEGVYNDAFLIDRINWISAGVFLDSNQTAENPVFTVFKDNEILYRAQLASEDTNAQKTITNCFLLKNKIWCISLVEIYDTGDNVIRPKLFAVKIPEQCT

| Binder | Area under the curve [1] | binding result [2] | IC50 of neutralization of HeV (plaque reduction assay) [3] [µg/mL] | IC50 of neutralization of NiVM (plaque reduction assay) [4] [µg/mL] | Kd [5] [nM] |
| --- | --- | --- | --- | --- | --- |
| B1 | 5.39 | binds | – | – | – |
| B2 | 3.71 | – | 0.27 | 0.31 | – |
| B3 | – | – | – | – | 2.1 |
